For assay [1], the target named is T1, recombinant Crtac1B fragment #5 (human, UniProt Q9NQ79 28-606).
T1 construct: also called fCrtac1B (1-608)
T1 sequence: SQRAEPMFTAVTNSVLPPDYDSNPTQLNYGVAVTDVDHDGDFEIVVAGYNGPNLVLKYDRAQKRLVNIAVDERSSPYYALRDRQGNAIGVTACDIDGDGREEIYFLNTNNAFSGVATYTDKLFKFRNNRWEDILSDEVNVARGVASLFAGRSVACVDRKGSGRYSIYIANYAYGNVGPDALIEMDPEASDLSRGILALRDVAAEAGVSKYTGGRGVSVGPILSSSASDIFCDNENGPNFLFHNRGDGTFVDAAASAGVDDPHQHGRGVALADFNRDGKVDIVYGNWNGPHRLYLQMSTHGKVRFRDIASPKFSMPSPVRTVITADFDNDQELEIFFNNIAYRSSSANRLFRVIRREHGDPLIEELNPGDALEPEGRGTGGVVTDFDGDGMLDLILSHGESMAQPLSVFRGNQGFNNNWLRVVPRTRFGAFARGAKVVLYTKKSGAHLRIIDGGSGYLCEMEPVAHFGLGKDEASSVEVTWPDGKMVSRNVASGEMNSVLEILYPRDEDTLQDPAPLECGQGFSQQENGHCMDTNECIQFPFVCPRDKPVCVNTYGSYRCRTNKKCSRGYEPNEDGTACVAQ
The assay is described as follows: antigen immobilized ELISA; reference fCrtac1B (1-609). As to the method: The positive antigen and the negative control were diluted to a concentration of 20 μg/mL with dilution buffer I (20 mM potassium phosphate buffer (pH 7.4), 150 mM NaCl). A positive antigen (50 μL) and a negative control (50 μL) were added to each well of a 96 well plate, respectively. Then, the plate was incubated at 4° C. overnight, and the positive antigen and the negative control were immobilized in the well to obtain an antigen immobilized plate. Each well was washed twice with a washing solution (250 μL, 0.05% Tween (registered trademark) 20/20 mM potassium phosphate buffer (pH 7.4), 150 mM NaCl). To each well was added a blocking buffer (250 μL, 5% skim milk/20 mM potassium phosphate buffer (pH 7.4), 150 mM NaCl), and blocked at room temperature for 90 minutes. Culture supernatant (50 μL) of each hybridoma selected by primary screening was added to each well, and the cells were incubated at 37° C. for 1 hour. Each well was washed three times with a washing solution (250 μL). The HRP-labeled anti-mouse IgG antibody (MBL, product number 330) was diluted 1:1,000 with dilution buffer II (1% skim milk/20 mM potassium phosphate buffer (pH 7.4), 150 mM NaCl). […] The plate was set in a microplate reader (Thermo Fisher Scientific, Varioskan (registered trademark) Flash), and the color development intensity at 655 nm was measured for each well. […]
A general note: In an ELISA, binding on a coated surface is turned into a signal by an enzyme label.

The next assay has as its target T2, human Crtac1A (human, UniProt Q9NQ79 28-661).
T2 construct: Recombinant protein (IB control sample) or native protein in human CSF and serum; also called rCrtac1A
T2 sequence: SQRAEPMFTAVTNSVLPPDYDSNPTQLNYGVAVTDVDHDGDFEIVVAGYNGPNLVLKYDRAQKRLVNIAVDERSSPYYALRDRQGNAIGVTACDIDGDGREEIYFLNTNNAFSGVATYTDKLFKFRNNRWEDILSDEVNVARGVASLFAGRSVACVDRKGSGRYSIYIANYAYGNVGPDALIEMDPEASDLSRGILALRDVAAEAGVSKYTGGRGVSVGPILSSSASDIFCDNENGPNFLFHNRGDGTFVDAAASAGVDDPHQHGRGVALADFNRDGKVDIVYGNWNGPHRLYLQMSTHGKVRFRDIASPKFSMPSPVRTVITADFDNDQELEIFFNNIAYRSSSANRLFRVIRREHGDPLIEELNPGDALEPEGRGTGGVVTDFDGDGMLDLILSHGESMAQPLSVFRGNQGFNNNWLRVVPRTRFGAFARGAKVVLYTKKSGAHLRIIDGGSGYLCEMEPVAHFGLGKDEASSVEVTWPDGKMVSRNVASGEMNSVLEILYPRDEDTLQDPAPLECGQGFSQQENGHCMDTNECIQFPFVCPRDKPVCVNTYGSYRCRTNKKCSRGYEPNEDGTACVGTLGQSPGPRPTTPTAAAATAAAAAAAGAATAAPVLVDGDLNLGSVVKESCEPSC
The assay is described as follows: immunoblotting (Wes) of denatured recombinant Crtac1A/1B and human CSF. As to the method: Study of specificity of monoclonal antibody to antigen (1) Immunoblotting (IB) analysis using a monoclonal antibody purified from the culture supernatant of hybridomas of clones 1B4 and 15C2 was performed on human cerebrospinal fluid (2 specimens: referred to as CSF1 and CSF2) by simple Western (registered trademark) system Wes (registered trademark) (Protein Simple Corporation). In the analysis by Wes, capillary electrophoresis and IB of the sample were performed fully automatically by the apparatus. Specific operations such as preparation of an electrophoresis sample, preparation of a diluent of a primary antibody, and analysis by an apparatus were performed according to the protocol attached to Wes. As a control sample, recombinant proteins of Crtac1A and Crtac1B were used. These recombinant proteins were prepared in the same manner as in Example 1. For comparison, analysis using an anti-rat LOTUS antibody (ITM, 45-12C) as a primary antibody was also performed.
In FIG. 5, “conventional antibody” represents the anti-rat LOTUS antibody, and “rCrtac1A/1B” represents recombinant proteins of Crtac1A and Crtac1B. […] However, when monoclonal antibodies derived from clones 1B4 and 15C2 were used, a band was not detected. In the electrophoresis sample, the protein in the sample was denatured by addition of a sample buffer and heating.
For orientation: Immunoblotting shows a protein as a band on a membrane.

B1: 15C2 antibody (monoclonal antibody derived from the hybridoma of clone 15C2) (antibody, mouse IgG1, kappa, V domains shown)
VH: EVQLQQFGAELVKPGASVKISCKASGYTFTDYNMDWVKQSHGKSLEWIGDINPNYDSSSYNQKFKGKATLTVDKSSSTAYMELRSLTSEDTAVYYCTRSGGTYWGQGTLVTVSA
VL: DIQMNQSPSSLSASLGDTITITCHASQNINVWLSWYQQKPGNIPKLLIYKASNLHTGVPSRFSGSGSGTGFSLTISSLQPEDIATYYCQQAQSYPRTFGGGTKLEIKR
notes: Mouse IgG1; Used as hybridoma culture supernatant (ELISA) or purified from supernatant (IB, IP); also called anti-Crtac1B antibody; antibody of the present embodiment
As to B1, in assay [1], the “binding relative to the binding to fCrtac1B (1-609)” value was approximately 0.1 fold. For the same molecule, in the assay with human Crtac1A, the binding result is listed as “no binding”.

Values taken from patent US20250296994A1 (SYSMEX, published 2025).
